In IntAct's records for PubMed 25500191:

B1: Pleckstrin homology domain-containing family M member 1 (Homo sapiens), Q9Y4G2 (parent)
chain: MLSVVENGLDPQAAIPVIKKKLVGSVKALQKQYVSLDTVVTSEDGDANTMCSALEAVFIHGLHAKHIRAEAGGKRKKSAHQKPLPQPVFWPLLKAVTHKHIISELEHLTFVNTDVGRCRAWLRLALNDGLMECYLKLLLQEQARLHEYYQPTALLRDAEEGEFLLSFLQGLTSLSFELSYKSAILNEWTLTPLALSGLCPLSELDPLSTSGAELQRKESLDSISHSSGSEDIEVHHSGHKIRRNQKLTASSLSLDTASSSQLSCSLNSDSCLLQENGSKSPDHCEEPMSCDSDLGTANAEDSDRSLQEVLLEFSKAQVNSVPTNGLSQETEIPTPQASLSLHGLNTSTYLHCEAPAEPLPAQAASGTQDGVHVQEPRPQAPSPLDLQQPVESTSGQQPSSTVSETAREVGQGNGLQKAQAHDGAGLKLVVSSPTSPKNKSWISEDDFYRPSREQPLESASDHPIASYRGTPGSRPGLHRHFSQEPRKNCSLGALDQACVPSPGRRQAQAAPSQGHKSFRVVHRRQMGLSNPFRGLMKLGTVERRGAMGIWKELFCELSPLEFRLYLSNEEHTCVENCSLLRCESVGPAHSDGRFELVFSGKKLALRASSQDEAEDWLDRVREALQKVRPQQEDEWVNVQYPDQPEEPPEAPQGCLSPSDLLSEPAALQGTQFDWSSAQVPEPDAIKESLLYLYMDRTWMPYIFSLSLEALKCFRIRNNEKMLSDSHGVETIRDILPDTSLGGPSFFKIITAKAVLKLQAGNAEEAALWRDLVRKVLASYLETAEEAVTLGGSLDENCQEVLKFATRENGFLLQYLVAIPMEKGLDSQGCFCAGCSRQIGFSFVRPKLCAFSGLYYCDICHQDDASVIPARIIHNWDLTKRPICRQALKFLTQIRAQPLINLQMVNASLYEHVERMHLIGRRREQLKLLGDYLGLCRSGALKELSKRLNHRNYLLESPHRFSVADLQQIADGVYEGFLKALIEFASQHVYHCDLCTQRGFICQICQHHDIIFPFEFDTTVRCAECKTVFHQSCQAVVKKGCPRCARRRKYQEQNIFA

Variants of: B1
Details: with rab7a_canlf RAB7A

| effect of a mutation on the interaction | Variant |
| --- | --- |
| with no effect | R769A |
| with no effect | E729A |
